Assay results as given in article PMC6900781.
Each block holds one binder with its values, some of them ahead of it.

Legend:
Settings in all cases: remark: other sources report otherwise
[1] = biological target: (dCENP-A/dH4) dimer (Drosophila melanogaster), Q9V6Q2; assay: SEC-MALS; recombinant proteins; Superdex 200 10/300 Increase GL, 50 mM HEPES pH 8.0, 150 or 300 mM NaCl, 1 mM TCEP, 22°C, 100 μl of 1-5 mg/ml
[2] = biological target: T1, GFP-LacI-dCENP-C (Drosophila melanogaster), Q9VHP9; assay: LacI/LacO tethering and recruitment assay (immunofluorescence); as a1, but with a third Drosophila centromere protein (CAL1-V5, dCENP-A-HA or -V5, or HA-dCENP-C) co-expressed, as named in the row
T1 chain: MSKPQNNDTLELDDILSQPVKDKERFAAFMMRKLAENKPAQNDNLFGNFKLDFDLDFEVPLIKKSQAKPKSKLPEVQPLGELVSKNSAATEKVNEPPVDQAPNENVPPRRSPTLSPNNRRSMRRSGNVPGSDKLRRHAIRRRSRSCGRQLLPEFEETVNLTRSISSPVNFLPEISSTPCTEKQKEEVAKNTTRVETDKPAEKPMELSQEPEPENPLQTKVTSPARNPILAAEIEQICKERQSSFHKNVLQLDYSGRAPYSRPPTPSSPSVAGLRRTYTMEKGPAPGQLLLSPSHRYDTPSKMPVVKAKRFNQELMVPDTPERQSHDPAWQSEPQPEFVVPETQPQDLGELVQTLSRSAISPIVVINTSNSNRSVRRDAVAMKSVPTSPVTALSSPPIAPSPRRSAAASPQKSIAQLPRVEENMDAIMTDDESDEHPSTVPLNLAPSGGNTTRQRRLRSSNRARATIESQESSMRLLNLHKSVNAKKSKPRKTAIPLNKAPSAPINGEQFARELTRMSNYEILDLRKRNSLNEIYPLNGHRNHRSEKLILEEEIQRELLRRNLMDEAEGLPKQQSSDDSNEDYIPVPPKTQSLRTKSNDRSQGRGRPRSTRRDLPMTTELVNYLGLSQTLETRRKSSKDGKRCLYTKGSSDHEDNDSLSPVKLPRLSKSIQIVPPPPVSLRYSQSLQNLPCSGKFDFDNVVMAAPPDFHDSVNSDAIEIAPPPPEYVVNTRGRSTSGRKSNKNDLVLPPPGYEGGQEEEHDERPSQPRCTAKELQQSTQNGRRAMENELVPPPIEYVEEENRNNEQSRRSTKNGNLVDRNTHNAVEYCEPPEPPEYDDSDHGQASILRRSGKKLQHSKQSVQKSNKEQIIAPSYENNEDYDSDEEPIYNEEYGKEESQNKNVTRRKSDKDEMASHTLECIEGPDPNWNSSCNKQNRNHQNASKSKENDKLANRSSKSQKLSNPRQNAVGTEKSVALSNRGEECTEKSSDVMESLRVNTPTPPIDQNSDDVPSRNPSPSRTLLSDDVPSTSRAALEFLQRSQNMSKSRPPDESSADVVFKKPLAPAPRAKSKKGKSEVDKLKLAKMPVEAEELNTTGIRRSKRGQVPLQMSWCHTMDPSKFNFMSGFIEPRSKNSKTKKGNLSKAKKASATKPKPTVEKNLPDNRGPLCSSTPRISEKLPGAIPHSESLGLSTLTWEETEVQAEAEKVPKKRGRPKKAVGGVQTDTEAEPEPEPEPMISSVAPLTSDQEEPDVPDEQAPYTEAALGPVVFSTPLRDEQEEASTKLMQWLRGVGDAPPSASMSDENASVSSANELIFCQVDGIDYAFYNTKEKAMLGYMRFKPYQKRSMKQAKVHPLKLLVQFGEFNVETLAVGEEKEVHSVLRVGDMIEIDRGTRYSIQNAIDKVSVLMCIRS

[3] = biological target: T1, GFP-LacI-dCENP-C (Drosophila …); assay: LacI/LacO tethering and recruitment assay (immunofluorescence); bait fused to GFP-LacI tethered to chromosomal LacO arrays in human U2OS cells; HA- or V5-tagged prey transiently co-expressed; IF 48 h after transfection, prey intensity at the LacO spot or % of cells; no third Drosophila centromere protein co-expressed
[4] = biological target: T2, dCENP-A-GFP-LacI (Drosophila melanogaster), Q9V6Q2; assay: LacI/LacO tethering and recruitment assay (immunofluorescence); as a1, but with a third Drosophila centromere protein (CAL1-V5, dCENP-A-HA or -V5, or HA-dCENP-C) co-expressed, as named in the row
T2 chain: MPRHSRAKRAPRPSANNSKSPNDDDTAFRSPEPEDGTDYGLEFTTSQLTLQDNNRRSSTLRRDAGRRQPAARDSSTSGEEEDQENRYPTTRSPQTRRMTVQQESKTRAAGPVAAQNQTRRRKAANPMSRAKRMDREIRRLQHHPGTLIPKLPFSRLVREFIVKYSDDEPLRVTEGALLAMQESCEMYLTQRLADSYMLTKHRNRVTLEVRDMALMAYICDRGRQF

[5] = biological target: T2, dCENP-A-GFP-LacI (Drosophila …); assay: LacI/LacO tethering and recruitment assay (immunofluorescence); bait fused to GFP-LacI tethered to chromosomal LacO arrays in human U2OS cells; HA- or V5-tagged prey transiently co-expressed; IF 48 h after transfection, prey intensity at the LacO spot or % of cells; no third Drosophila centromere protein co-expressed

stoichiometry N ((dCENP-A/dH4) dimer per CAL1(1-160)) [1]: 1
B1: recombinant CAL1(1-160), Q9VEN2 1-160 (domain or fragment)
chain: MANAVVDEETLEAMVYERSKAWSSKMADFASLEDGMEIDVAEFDNLFHGEDEDPDLDDVAKEAVEDNVPDEAKLEMGHINATSVTELTLILCANEDNEAKAEIEEILNQTVPVVEEHKRKWREAGLDRILDTFDEKQIEHHVGRWMRRHNSVYLEASPPK

% of cells with localization at LacO (with CAL1-V5) [2]: 73 % cells
% of cells with localization at LacO (without CAL1) [3]: 43 % cells
B2: dCENP-A-HA, Q9V6Q2 1-225 (natural protein)
chain: MPRHSRAKRAPRPSANNSKSPNDDDTAFRSPEPEDGTDYGLEFTTSQLTLQDNNRRSSTLRRDAGRRQPAARDSSTSGEEEDQENRYPTTRSPQTRRMTVQQESKTRAAGPVAAQNQTRRRKAANPMSRAKRMDREIRRLQHHPGTLIPKLPFSRLVREFIVKYSDDEPLRVTEGALLAMQESCEMYLTQRLADSYMLTKHRNRVTLEVRDMALMAYICDRGRQF

% of cells with recruitment at LacO (with CAL1-V5) [4]: 55 % cells
% of cells with recruitment at LacO (without CAL1-V5) [5]: 17 % cells
B3: HA-dCENP-C, Q9VHP9 1-1411 (natural protein)
chain: MSKPQNNDTLELDDILSQPVKDKERFAAFMMRKLAENKPAQNDNLFGNFKLDFDLDFEVPLIKKSQAKPKSKLPEVQPLGELVSKNSAATEKVNEPPVDQAPNENVPPRRSPTLSPNNRRSMRRSGNVPGSDKLRRHAIRRRSRSCGRQLLPEFEETVNLTRSISSPVNFLPEISSTPCTEKQKEEVAKNTTRVETDKPAEKPMELSQEPEPENPLQTKVTSPARNPILAAEIEQICKERQSSFHKNVLQLDYSGRAPYSRPPTPSSPSVAGLRRTYTMEKGPAPGQLLLSPSHRYDTPSKMPVVKAKRFNQELMVPDTPERQSHDPAWQSEPQPEFVVPETQPQDLGELVQTLSRSAISPIVVINTSNSNRSVRRDAVAMKSVPTSPVTALSSPPIAPSPRRSAAASPQKSIAQLPRVEENMDAIMTDDESDEHPSTVPLNLAPSGGNTTRQRRLRSSNRARATIESQESSMRLLNLHKSVNAKKSKPRKTAIPLNKAPSAPINGEQFARELTRMSNYEILDLRKRNSLNEIYPLNGHRNHRSEKLILEEEIQRELLRRNLMDEAEGLPKQQSSDDSNEDYIPVPPKTQSLRTKSNDRSQGRGRPRSTRRDLPMTTELVNYLGLSQTLETRRKSSKDGKRCLYTKGSSDHEDNDSLSPVKLPRLSKSIQIVPPPPVSLRYSQSLQNLPCSGKFDFDNVVMAAPPDFHDSVNSDAIEIAPPPPEYVVNTRGRSTSGRKSNKNDLVLPPPGYEGGQEEEHDERPSQPRCTAKELQQSTQNGRRAMENELVPPPIEYVEEENRNNEQSRRSTKNGNLVDRNTHNAVEYCEPPEPPEYDDSDHGQASILRRSGKKLQHSKQSVQKSNKEQIIAPSYENNEDYDSDEEPIYNEEYGKEESQNKNVTRRKSDKDEMASHTLECIEGPDPNWNSSCNKQNRNHQNASKSKENDKLANRSSKSQKLSNPRQNAVGTEKSVALSNRGEECTEKSSDVMESLRVNTPTPPIDQNSDDVPSRNPSPSRTLLSDDVPSTSRAALEFLQRSQNMSKSRPPDESSADVVFKKPLAPAPRAKSKKGKSEVDKLKLAKMPVEAEELNTTGIRRSKRGQVPLQMSWCHTMDPSKFNFMSGFIEPRSKNSKTKKGNLSKAKKASATKPKPTVEKNLPDNRGPLCSSTPRISEKLPGAIPHSESLGLSTLTWEETEVQAEAEKVPKKRGRPKKAVGGVQTDTEAEPEPEPEPMISSVAPLTSDQEEPDVPDEQAPYTEAALGPVVFSTPLRDEQEEASTKLMQWLRGVGDAPPSASMSDENASVSSANELIFCQVDGIDYAFYNTKEKAMLGYMRFKPYQKRSMKQAKVHPLKLLVQFGEFNVETLAVGEEKEVHSVLRVGDMIEIDRGTRYSIQNAIDKVSVLMCIRS
